Measurements taken from publication PMC10470402.

Biological target: S. pombe HT-Gemin2 (S. pombe) (UniProt P0CU08)
Test: pull-down

Sequence of S. pombe HT-Gemin2 (S. pombe) (P0CU08 whole entry): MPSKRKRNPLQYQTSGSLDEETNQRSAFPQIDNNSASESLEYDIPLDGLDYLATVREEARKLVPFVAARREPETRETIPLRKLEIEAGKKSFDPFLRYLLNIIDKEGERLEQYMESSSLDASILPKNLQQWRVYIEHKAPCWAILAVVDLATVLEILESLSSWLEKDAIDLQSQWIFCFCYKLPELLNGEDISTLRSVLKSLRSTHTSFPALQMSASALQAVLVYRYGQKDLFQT

Substance	percent bound	percent bound (D1/D2 and F/E/G added together)
S. pombe SmD1/SmD2 subcomplex, HT-tag removed (from UniProt O42661 1-117; O14036 1-115)	4.1%	15.1%
S. pombe SmF/SmE/SmG subcomplex, HT-tag removed (from UniProt O59734 1-78; Q9USZ3 1-84; O74966 1-77)	7.4%	9.2%
